Source: patent publication US20120237507A1

Biological target: c-Met on A549 cells (UniProt P08581)
Test: half-maximal binding, flow cytometry on A549 cells

Sequence of UniProt P08581 (P08581 25-1390 limits assumed): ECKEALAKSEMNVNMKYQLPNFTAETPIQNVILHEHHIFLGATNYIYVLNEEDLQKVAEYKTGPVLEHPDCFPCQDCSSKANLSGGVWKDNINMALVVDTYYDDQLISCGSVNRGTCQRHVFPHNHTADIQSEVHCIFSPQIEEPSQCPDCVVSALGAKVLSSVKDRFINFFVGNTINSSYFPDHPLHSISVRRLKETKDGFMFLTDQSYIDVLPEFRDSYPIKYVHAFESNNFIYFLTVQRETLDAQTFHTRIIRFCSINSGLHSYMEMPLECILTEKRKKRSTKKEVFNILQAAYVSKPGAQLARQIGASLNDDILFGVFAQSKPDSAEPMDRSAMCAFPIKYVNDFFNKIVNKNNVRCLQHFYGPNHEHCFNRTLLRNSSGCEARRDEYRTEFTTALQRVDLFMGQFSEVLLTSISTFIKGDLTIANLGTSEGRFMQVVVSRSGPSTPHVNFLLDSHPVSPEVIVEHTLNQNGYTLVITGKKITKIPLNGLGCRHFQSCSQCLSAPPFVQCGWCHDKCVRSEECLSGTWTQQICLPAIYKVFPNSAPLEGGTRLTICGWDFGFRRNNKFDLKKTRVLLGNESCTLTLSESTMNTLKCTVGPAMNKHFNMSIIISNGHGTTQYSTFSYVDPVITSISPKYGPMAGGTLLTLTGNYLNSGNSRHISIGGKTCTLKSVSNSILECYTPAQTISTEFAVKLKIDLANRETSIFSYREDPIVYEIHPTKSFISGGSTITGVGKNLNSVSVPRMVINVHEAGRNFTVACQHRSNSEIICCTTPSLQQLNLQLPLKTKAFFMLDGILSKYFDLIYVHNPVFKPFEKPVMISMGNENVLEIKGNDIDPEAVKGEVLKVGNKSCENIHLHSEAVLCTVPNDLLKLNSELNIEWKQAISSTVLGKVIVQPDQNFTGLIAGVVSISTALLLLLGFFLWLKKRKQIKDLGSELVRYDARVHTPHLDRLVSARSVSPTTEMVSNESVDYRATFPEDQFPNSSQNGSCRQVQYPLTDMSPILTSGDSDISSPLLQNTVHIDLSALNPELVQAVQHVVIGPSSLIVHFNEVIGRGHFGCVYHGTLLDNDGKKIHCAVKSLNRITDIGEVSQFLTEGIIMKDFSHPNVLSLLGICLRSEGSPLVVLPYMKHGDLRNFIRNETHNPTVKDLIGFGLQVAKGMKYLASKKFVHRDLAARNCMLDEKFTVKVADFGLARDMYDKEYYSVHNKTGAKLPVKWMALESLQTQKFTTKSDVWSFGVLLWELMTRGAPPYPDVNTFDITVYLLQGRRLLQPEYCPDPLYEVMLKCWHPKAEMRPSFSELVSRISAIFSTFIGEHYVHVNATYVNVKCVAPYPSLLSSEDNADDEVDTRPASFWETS

With MetMAb/OA-5D5 (Genentech) (antibody) the EC50 was 1.45 nM.
